Measured values reported in patent publication US20220213227A1 (published 2022).

B1: BEAT HER2/CD3-2 antibody (bispecific antibody, human IgG1, kappa, L234A L235A)
heavy: not shown
light: not shown
chain: EVQLVESGGGLVQPGGSLRLSCAASGYTFTRYTMHWVRQAPGKGLEWIGYINPSRGYTYYADSVKGRFTLSTDKSKNTAYLQMSSLRAEDTAVYYCARYYDDHYCLDYWGQGTLVTVSSGGGGSGGGGSGGGGSGGGASDIQLTQSPSSLSASVGDRVTITCRASSSVSYVAWYQQKPGKAPKRWIYDTSKLYSGVPSRFSGSGSGTDYTLTISSLQPEDFATYYCQQWSSNPPTFGQGTKVEIKGGGGTDKTHTCPPCPAPEAAGGPSVFLFPPKPKDTLMISRTPEVTCVVVDVSHEDPEVQFKWYVDGVEVHNAKTKPREEQYNSTFRVVSVLTVLHQDWLNGKEYKCKVSNKALPAPIEKTISKTKGQPREPEVATFPPSREEMTKNQVTLVCLVTGFYPSDIAVEWESSGQPENNYNTDPPLLESDGSFALSSRLRVDKSRWQQGNIFSCSVMHEALHNRFTQKSLSLSPGK
B2: BEAT HER2/CD3-1 antibody (bispecific antibody, human IgG1, kappa, L234A L235A)
heavy: EVQLVESGGGLVQPGGSLRLSCAASGYTFTRYTMHWVRQAPGKGLEWIGYINPSRGYTYYADSVKGRFTLSTDKSKNTAYLQMSSLRAEDTAVYYCARYYDDHYCLDYWGQGTLVTVSSASTKGPSVFPLAPSSKSTSGGTAALGCLVKDYFPEPVTVSWNSGALTSGVHTFPAVLQSSGLYSLSSVVTVPSSSLGTQTYICNVNHKPSNTKVDKKVEPKSCDKTHTCPPCPAPEAAGGPSVFLFPPKPKDTLMISRTPEVTCVVVDVSHEDPEVQFKWYVDGVEVHNAKTKPREEQYNSTFRVVSVLTVLHQDWLNGKEYKCKVSNKALPAPIEKTISKTKGQPREPAVYTLPPSREEMTKNQVKLVCLVTGFYPSDIAVEWESSGQPENNYYTTPPMLDSDGSFSLVSWLNVDKSRWQQGNIFSCSVMHEALHNRFTQKSLSLSPGK
light: DIQLTQSPSSLSASVGDRVTITCRASSSVSYVAWYQQKPGKAPKRWIYDTSKLYSGVPSRFSGSGSGTDYTLTISSLQPEDFATYYCQQWSSNPPTFGQGTKVEIKRTVAAPSVFIFPPSDEQLKSGTASVVCLLNNFYPREAKVQWKVDNALQSGNSQESVTEQDSKDSTYSLSSTLTLSKADYEKHKVYACEVTHQGLSSPVTKSFNRGEC
chain: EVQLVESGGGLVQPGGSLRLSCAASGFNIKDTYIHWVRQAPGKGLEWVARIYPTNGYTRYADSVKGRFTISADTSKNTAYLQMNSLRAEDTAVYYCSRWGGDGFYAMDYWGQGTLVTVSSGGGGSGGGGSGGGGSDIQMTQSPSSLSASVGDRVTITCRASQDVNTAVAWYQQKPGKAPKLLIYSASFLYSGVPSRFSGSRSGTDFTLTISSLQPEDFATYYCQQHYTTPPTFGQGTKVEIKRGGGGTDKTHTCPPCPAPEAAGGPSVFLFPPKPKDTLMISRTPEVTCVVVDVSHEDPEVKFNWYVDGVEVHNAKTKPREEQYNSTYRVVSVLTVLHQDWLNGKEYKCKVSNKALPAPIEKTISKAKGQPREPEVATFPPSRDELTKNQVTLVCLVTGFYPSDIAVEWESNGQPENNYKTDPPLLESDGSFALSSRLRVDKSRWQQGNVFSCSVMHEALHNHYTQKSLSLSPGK
notes: also called HER2/CD3-1 bispecific antibody
B3: VECTIBIX (panitumumab)/hSP34 BEAT (bispecific antibody)
VH: QVQLQESGPGLVKPSETLSLTCTVSGGSVSSGDYYWTWIRQSPGKGLEWIGHIYYSGNTNYNPSLKSRLTISIDTSKTQFSLKLSSVTAADTAIYYCVRDRVTGAFDIWGQGTMVTVSS
VL: DIQMTQSPSSLSASVGDRVTITCQASQDISNYLNWYQQKPGKAPKLLIYDASNLETGVPSRFSGSGSGTDFTFTISSLQPEDIATYFCQHFDHLPLAFGGGTKVEIK
chain: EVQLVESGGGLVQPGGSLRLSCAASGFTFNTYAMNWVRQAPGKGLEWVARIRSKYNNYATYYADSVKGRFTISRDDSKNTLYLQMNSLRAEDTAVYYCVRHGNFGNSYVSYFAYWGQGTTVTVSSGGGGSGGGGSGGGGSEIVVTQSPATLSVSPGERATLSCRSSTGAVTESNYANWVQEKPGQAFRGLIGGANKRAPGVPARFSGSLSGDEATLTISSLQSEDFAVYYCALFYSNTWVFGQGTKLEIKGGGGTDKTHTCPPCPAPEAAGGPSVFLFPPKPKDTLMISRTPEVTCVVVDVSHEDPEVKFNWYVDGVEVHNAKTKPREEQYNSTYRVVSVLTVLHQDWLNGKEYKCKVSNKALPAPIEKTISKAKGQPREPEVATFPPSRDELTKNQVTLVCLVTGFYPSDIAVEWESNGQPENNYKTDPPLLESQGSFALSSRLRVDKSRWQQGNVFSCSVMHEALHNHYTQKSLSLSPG

Columns and labels:
human HER2 on cells = human HER2 on cells (human, UniProt P04626 23-1255); test: cell-based or functional assay
[1] = biological target: T1, human CD3 gamma-epsilon-Fc fusion protein (human); test: SPR using the human CD3gamma-epsilon-Fc construct
T1 construct: also called CD3 gamma-epsilon-Fc protein; human CD3gamma-epsilon-Fc construct

human EGFR on cells [2] = biological target: T2, human EGFR on cells (human, UniProt P00533 25-1210); test: cell-based or functional assay
human EGFR on cells [3] = biological target: T2, human EGFR on cells; test: cell-based or functional assay; remark: listed apart in the source

| Binder | EC50 of T cell redirected killing of BT-474 cells (RDL-MTS) (human HER2 on cells) [pM] | EC50 of T cell redirected killing of JIMT-1 cells (RDL-MTS) (human HER2 on cells) [pM] | EC50 of T cell redirected killing of MDA-MB-231 cells (RDL-MTS) (human HER2 on cells) [pM] | binding result [1] | EC50 of T cell redirected killing of JIMT-1 cells (RDL-FACS) (human HER2 on cells) [pM] | EC50 of T cell redirected killing of MDA-MB-231 cells (RDL-FACS) (human HER2 on cells) [pM] | EC50 (X)/EC50 (HCC827), HCT116 cells (human EGFR on cells [2]) [ratio] | EC50 (X)/EC50 (HCC827), MCF7 cells (human EGFR on cells [2]) [ratio] | EC50 (X)/EC50 (HCC827), SW480 cells (human EGFR on cells [2]) [ratio] | EC50 of redirected T-cell lysis of HCC827 cells (human EGFR on cells [2]) [pM] | EC50 of redirected T-cell lysis of HCT116 cells (human EGFR on cells [2]) [pM] | EC50 of redirected T-cell lysis of MCF7 cells (human EGFR on cells [2]) [pM] | EC50 of redirected T-cell lysis of SW480 cells (human EGFR on cells [2]) [pM] | EC50 of redirected T-cell lysis of A549 cells (human EGFR on cells [3]) [pM] | EC50 of redirected T-cell lysis of HCC827 cells (value of the text, differs from the table) (human EGFR on cells [3]) [pM] |
| --- | --- | --- | --- | --- | --- | --- | --- | --- | --- | --- | --- | --- | --- | --- | --- |
| B1 | 2 | 16 | ~200 | binds |  |  |  |  |  |  |  |  |  |  |  |
| B2 | 0.6 | 21 | ~200 | binds | 1.4 | 80 |  |  |  |  |  |  |  |  |  |
| B3 |  |  |  |  |  |  | 2.3 | 4300 | 47.9 | 0.146 | 0.341 | 627 | 6.99 | 0.613 | 0.156 |
